Source: US20250313619A1, “RISANKIZUMAB COMPOSITIONS” (ABBVIE INC., priority 0001, published 2025)

Legend:
[1] = Size exclusion chromatography (UP-SEC/SEC): monomer and HMW; format: physicochemical; details: compared to Process 1 reference standard DS1-RS2
Excerpt: (§1) The PLBL2 KO, PLA2G15 KO, LPL KO and wild-type process control materials were thawed and purified using Process 1 (see Example 1), while ultrafiltration/diafiltration (UF/DF) followed Process 4 (see Example 3). […] High molecular weight (HMW) by size exclusion chromatography (SEC), charge variants by weak cation exchange chromatography (WCX), low molecular weight (LMW) by non-reduced capillary electrophoresis sodium dodecyl sulfate (CE-SDS), free fatty acids (FFA) and PS20 levels were monitored during the stability study at various time points.
(§2) Antibody preparations derived from the knock-out samples and controls were tested for the presence of the three lipases by specific ELISA methods: PLBL2 and PLA2G15 were measured using CHO-specific in-house methods and LPL was measured using a commercial anti-mouse ELISA kit. PS20 stability was measured in samples that were incubated for different lengths of time (several time points over a 12-month period) and different temperatures (5° C., 25° C., 40° C.) using two different methods. One method measured the total amount of PS20 present in the sample; PS20 was quantified directly by using a RP-HPLC-CAD method. The other method assessed the breakdown of PS20 by measuring the amount of free fatty acid, mainly lauric acid that was released by hydrolysis. […] The generated signal is directly proportional to the quantity of FFAs released. […]

[2] = Non-reduced capillary gel electrophoresis (CGE-NR / CE-SDS): main peak and LMW; format: physicochemical; details: compared to Process 1 reference standard DS1-RS2
Excerpt: as §1, §2

IL-23 [3] = molecular target: T1, IL-23 (Homo sapiens, UniProt Q9NPF7); test: Inhibition of IL-23 stimulated IL-17 production; format: cell-based; details: read-out: inhibition of IL-23 stimulated IL-17 production, inhibitory concentration (IC) 50
T1 sequence (Q9NPF7 20-189): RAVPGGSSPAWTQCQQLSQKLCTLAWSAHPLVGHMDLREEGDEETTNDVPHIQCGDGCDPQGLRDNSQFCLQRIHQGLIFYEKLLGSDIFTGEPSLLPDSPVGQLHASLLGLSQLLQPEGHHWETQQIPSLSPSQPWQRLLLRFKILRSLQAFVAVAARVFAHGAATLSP
T1 sequence (P29460 23-328 partner): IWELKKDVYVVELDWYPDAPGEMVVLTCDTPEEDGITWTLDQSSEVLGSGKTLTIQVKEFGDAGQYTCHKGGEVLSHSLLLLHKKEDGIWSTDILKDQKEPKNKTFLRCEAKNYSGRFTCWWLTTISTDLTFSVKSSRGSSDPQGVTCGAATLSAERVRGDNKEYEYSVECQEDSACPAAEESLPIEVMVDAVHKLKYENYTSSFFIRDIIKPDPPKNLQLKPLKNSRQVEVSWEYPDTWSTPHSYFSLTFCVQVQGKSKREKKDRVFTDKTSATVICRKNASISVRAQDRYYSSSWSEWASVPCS

IL-12 = molecular target: T2, IL-12 (Homo sapiens, UniProt P29459+P29460); test: IL-12 effect / IL-12 stimulated IFN-γ production; format: cell-based
T2 sequence (P29459 23-219): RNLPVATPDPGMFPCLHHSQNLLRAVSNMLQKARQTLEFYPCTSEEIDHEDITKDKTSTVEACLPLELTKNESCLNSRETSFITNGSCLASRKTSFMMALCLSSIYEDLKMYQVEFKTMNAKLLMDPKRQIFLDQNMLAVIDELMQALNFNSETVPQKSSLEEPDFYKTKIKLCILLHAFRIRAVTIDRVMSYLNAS
T2 sequence (P29460 23-328): T1 sequence (P29460 23-328 partner)

IL-23 [4] = molecular target: T1, IL-23; test: Binding to human IL-23
healthy adult subjects = test: Anti-drug antibody (ADA) incidence after single 150 mg SC dose, bridging electrochemiluminescence immunoassay; format: in vivo, human; details: 113 days
Procedure: A single-dose, randomized, two-parallel-arm, open-label, multi-center study in healthy adult subjects was carried out. Subjects received a risankizumab 150 mg dose by subcutaneous (SC) injection in the abdomen using a 150 mg/ml formulation in a prefilled syringe (PFS). Arm 1: Risankizumab 150 mg/mL formulation in PFS produced by Process 4 (150 mg×1 SC injection) (test, N=132); Arm 2: Risankizumab 150 mg/mL formulation in PFS produced by Process 2 (150 mg×1 SC injection) (reference, N=130). Serial blood samples for anti-drug antibody (ADA) were collected over a period of 113 days. […]
The presence of ADA was determined using a validated titer based bridging electrochemiluminescence immunoassay as described below.
This is a qualitative assay designed to detect anti-risankizumab antibodies in human serum. Anti-drug antibodies (ADA) against risankizumab in human serum were detected using an electrochemiluminescent (ECL) immunoassay. […] This complex was bound to a blocked MSD-streptavidin (MSD-SA) plate and detected by a chemiluminescent signal that was generated when voltage was applied. […]
Samples were analyzed in a tiered approach. […]
The confirmatory assay measured the percent inhibition of ECL immunoassay signals of screened positive samples when spiked with excess risankizumab. […]

ADCC activity = test: ADCC activity
Excerpt: (§3) Risankizumab has been designed with Leu234Aa and Leu235Aa mutations in Fc to diminish its Fc effector binding activity.

CDC activity = test: CDC activity
Excerpt: as §3

[5] = Hitchhiker protein spiking study, PS20-CAD subspecies method; format: biochemical; details: for activity to PS20 degradation: DP3 and DP4 materials spiked with enzyme (summary); for PS20 degradation: ~30 hours incubation at 25° C.
Excerpt: PS20-CAD subspecies method was used. This method was originally developed to qualitatively determine subspecies composition and to quantify the PS20 subspecies relative to a PS20 manufacturing standard. The HPLC system used in this study was an Agilent 1260 II infinity HPLC equipped with a quaternary pump, mobile phase degassing unit, refrigerated auto sampler, temperature controlled column compartment, and a Thermo Scientific charged aerosol detector (CAD). Data was collected by Waters Empower acquisition system. Methods for detecting PS20 using Charged Aerosol Detector (CAD) are also described in Example 10.
Since the system takes 70 minutes to finish each injection (labeled as “injection” in Table 19), repeated injections measured the degradation patterns (profiles) at different incubation times. All samples were kept in a 25° C. autosampler during the entire test.
PS20-CAD subspecies method described above was used.
The solution was mixed and tested. All samples were studied at 25° C.
The solution was mixed and tested. All samples were studied at 25° C. […] More information can be found in Table 21A.
The solution was mixed and tested. More information regarding the study design can be found in Table 21A.
The solution was mixed and tested. More information regarding the study design can be found in Table 21B below.
The solution was mixed and tested. More information regarding the study design can be found in Table 21B.

## DS4-005: risankizumab Process 4 drug substance batch
[1]
  HMW peak by UP-SEC: smaller
[2]
  LMW peak by CGE-NR: smaller

## Immunoglobulin G1, anti-(human interleukin 23 subunit p19) (human-Mus musculus heavy chain), disulfide with human-Mus musculus κ-chain, dimer [risankizumab]
IL-23 [3]
  IC50: < 0.01 nM
IL-12
  inhibition of IL-12 stimulated IFN-γ production: does not inhibit
IL-12; maximum tested concentration (33 nM)
  effect on IL-12: does not affect
IL-23 [4]
  binding to human IL-23: high affinity
Healthy adult subjects
  treatment-emergent ADA incidence: low
ADCC activity
  ADCC activity: does not possess
CDC activity
  COC activity: does not possess

## ustekinumab: comparator in the same IL-23 stimulated IL-17 production system [reference compound]
IL-23 [3]
  IC50: 0.167 nM

B1: PLA2G15: hitchhiker protein enzyme spiked into DP3/DP4 material (protein)
chain: VQRHPPVVLVPGDLGNQLEAKLDKPKVVHYLCSKRTDSYFTLWLNLELLLPVIIDCWIDNIRLVYNRTSRATQFPDGVDVRVPGFGETFSLEFLDPSKRTVGSYFHTMVESLVGWGYTRGEDLRGAPYDWRRAPNENGPYFLALREMIEEMYQMYGGPVVLVAHSMGNMYTLYFLQRQPQAWKDKYIHAFISLGAPWGGVAKTLRVLASGDNNRIPVIGPLKIREQQRSAVSTSWLLPYNHTWSHDKVFVHTPTTNYTLRDYHQFFQDIRFEDGWFMRQDTEGLVEAMMPPGVELHCLYGTGVPTPDSFYYESFPDRDPKICFGDGDGTVNLESVLQCQAWQSRQEHKVSLQELPGSEHIEMLANATTLAYLKRVLFEP
[5]; DP3 spiked with 1 μg/mL PLA2G15, 25° C.
  PS20 degradation pattern (profile) versus pattern observed in DP2 materials: matches
[5]; DP4 spiked with 0.01875-0.6 ng/mg PLA2G15, 25° C.
  PS20 degradation rate versus spiking level: concentration dependent PS20 degradation rates were observed

B2: PLA2G7: Recombinant human PLA2G7/PAF-AH/LP-PLA2 protein (5106-PL-010, Bio-techne) (protein, UniProt Q13093 22-441, looked up)
Platelet-activating factor …: FDWQYINPVAHMKSSAWVNKIQVLMAAASFGQTKIPRGNGPYSVGCTDLMFDHTNKGTFLRLYYPSQDNDRLDTLWIPNKEYFWGLSKFLGTHWLMGNILRLLFGSMTTPANWNSPLRPGEKYPLVVFSHGLGAFRTLYSAIGIDLASHGFIVAAVEHRDRSASATYYFKDQSAAEIGDKSWLYLRTLKQEEETHIRNEQVRQRAKECSQALSLILDIDHGKPVKNALDLKFDMEQLKDSIDREKIAVIGHSFGGATVIQTLSEDQRFRCGIALDAWMFPLGDEVYSRIPQPLFFINSEYFQYPANIIKMKKCYSPDKERKMITIRGSVHQNFADFTFATGKIIGHMLKLKGDIDSNVAIDLSNKASLAFLQKHLGLHKDFDQWDCLIEGDDENLIPGTNINTTNQHIMLQNSSGIEKYN
[5]
  activity to PS20 degradation: moderate activities
[5]; DP3 spiked with 5 μg/mL enzyme, 25° C.
  PS20 degradation pattern (profile) versus pattern observed in DP2 materials: very different
[5]; DP3 spiked with 5 μg/mL enzyme
  PS20 degradation: caused PS20 degradation with a relatively high activity

B3: PRDX6: Recombinant human Peroxiredoxin 6 protein (ab87631, Abcam) (protein, UniProt P30041 2-224, looked up)
Peroxiredoxin-6: PGGLLLGDVAPNFEANTTVGRIRFHDFLGDSWGILFSHPRDFTPVCTTELGRAAKLAPEFAKRNVKLIALSIDSVEDHLAWSKDINAYNCEEPTEKLPFPIIDDRNRELAILLGMLDPAEKDEKGMPVTARVVFVFGPDKKLKLSILYPATTGRNFDEILRVVISLQLTAEKRVATPVDWKDGDSVMVLPTIPEEEAKKLFPKGVFTKELPSGKKYLRYTPQP
[5]
  activity to PS20 degradation: very low activities
[5]; DP3 spiked with 5 μg/mL enzyme
  PS20 degradation: no detectable PS20 degradation
